Assay [1] addresses T1, HIV-1 MN gp41 recombinant protein produced in E. coli (565-771Delta642-725) (HIV-1 MN). The assay is described as follows: ELISA. (In general: An ELISA detects its analyte on a solid surface through an enzyme-linked reagent.)
Assay [2] concerns the target T2, HIV-1 MN gp41 (a.a. 542-666) produced in S2 cells (UniProt P05877 542-666). Nature of the assay: ELISA; curve not in saturation.
Assay [3] concerns the target T3, BSA-PEP3 peptide (also: conjugated to BSA).
T3 peptide: PWNASWSNKSLDDIW
The assay is described as follows: ELISA.

For assay [4], the target named is T2, HIV-1 MN gp41 (a.a. 542-666) produced …. Nature of the assay: ELISA.
Assay [5] deals with T3, BSA-PEP3 peptide. The assay is described as follows: ELISA.
Assay [6] has as its target T4, HXB2 gp41 recombinant protein (a.a. 534-681) (UniProt P04578 534-681). Nature of the assay: ELISA.
For assay [7], the target named is T4, HXB2 gp41 recombinant protein (a.a. …). The assay is described as follows: ELISA. The source holds these as a separate data set.
The target of assay [8] is T1, HIV-1 MN gp41 recombinant protein …. Nature of the assay: ELISA. The source holds these as a separate data set.
Assay [9] has as its target T4, HXB2 gp41 recombinant protein (a.a. …). Nature of the assay: sandwich ELISA; capture Ab.
Assay [10] has the same target. The assay is described as follows: ELISA; curve not in saturation.
Assay [11] concerns the target T2, HIV-1 MN gp41 (a.a. 542-666) produced …. The assay is described as follows: ELISA. The source holds these as a separate data set.

The term EC50 denotes the concentration at which the effect is half-maximal.

Where two headings read alike, the source gives them in different places. Ends that are not written are not given here. Some results are limits rather than exact numbers.

B1: anti-PEP3 mAb 15B4 (antibody, V domains shown)
VH: QVQLQQSGPELVRPGTSVKISCKAPGYSFTSHWMQWLRQRPGQGLEWIGEIFPGSGKTYYNEKFKDKATLTADTSSTTVYMQFSSLTSEDSAVYFCASDYDGGDYWGQGTTLTVSS
VL: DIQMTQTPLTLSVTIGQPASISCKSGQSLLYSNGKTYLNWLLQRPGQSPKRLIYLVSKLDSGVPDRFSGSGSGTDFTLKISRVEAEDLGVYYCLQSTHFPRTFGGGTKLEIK
B1: the EC50 in assay [1] is 0.3 µg/mL; in assay [2], greater than 11 µg/mL; in the assay with BSA-PEP3 peptide [3], 0.02 µg/mL; in assay [4], greater than 11 µg/mL; with BSA-PEP3 peptide [5] it was 0.02 µg/mL; in assay [6] it was 0.12 µg/mL. The EC50 worked out at 0.12 µg/mL in assay [7], 0.3 µg/mL in assay [8] and 0.355 µg/mL in [9].

B2: anti-PEP3 mAb 5E12 (antibody, V domains shown)
VH: QIQLVQSGPELKKPGETVKISCKASGYTFRTYGMSWVKQAPGKGLKWMGWINTYSGVPRYVDDFKGRFALSLETSASTAYLQINNLKSEDTATYFCVREGYSYYGSSFHTMDYWGQGTSVTVSS
VL: DIQMTQTPLTLSVTIGHPASISCKSSQSLLHTNGKIYLNWLLQRPGQSPKRLIYLVSKLDSGVPDRFSGSGSGTDFTLKISRVEAEDLGVYYCLQSTHFPQTFGGGTKLEIK
Turning to B2, the EC50 in assay [1] was greater than 13 µg/mL; in [2], greater than 19 µg/mL; in [10], greater than 20 µg/mL; with BSA-PEP3 peptide [3] it was 0.015 µg/mL; in [4], greater than 19 µg/mL; with BSA-PEP3 peptide [5], 0.015 µg/mL. Besides, the EC50 in [6] is greater than 20 µg/mL; in [8], greater than 13 µg/mL.

B3: anti-PEP3 mAb 9B12 (antibody, V domains shown)
VH: QVQLQQSGPELVKPGASVKISCKASGYGFSDSWMNWVKQRPGKGLDWIGRIYPGDGDTDYNGKFKDKATLTADKSSTTAYMQLSSLTSEDSAVYFCAYLGHWGQGTLVTVSA
VL: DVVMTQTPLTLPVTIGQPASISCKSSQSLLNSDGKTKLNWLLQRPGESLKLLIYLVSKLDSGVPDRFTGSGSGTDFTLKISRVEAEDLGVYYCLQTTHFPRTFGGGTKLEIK
Take B3: the EC50 in [1] is greater than 30 µg/mL; in assay [2], greater than 700 µg/mL; in assay [10] it was greater than 137 µg/mL; in the assay with BSA-PEP3 peptide [3] it was 0.02 µg/mL; in assay [4], greater than 700 µg/mL; with BSA-PEP3 peptide [5], 0.02 µg/mL. The values for the EC50 in [6] and in assay [8] were greater than 137 µg/mL and greater than 30 µg/mL, respectively.

B4: anti-PEP3 mAb 3A2 (antibody, V domains shown)
VH: QVQLQQPGAELVKPGASVKLSCKASGYIFTNYWMHWVRQRPGQGPEWIGMIHPNRGDLHYSEKFNNKATLTVDKSSSTAYMQLNSLASEDSAVYFCARAGLGVFDYWGQGSTLTVSS
VL: DVVMTQTPLSLPVSLGDQVSMSCRSSQSIEHSNRNTYLEWYLHKPGQAPQLLIYGVSNRFTGVPDRFSGSGSGTDFTLKISRVEAEDMGVYHCLQGTHVPFTFGSGTKLEIK
Take B4: the EC50 in assay [1] turned out to be 0.02 µg/mL; with BSA-PEP3 peptide [3], 0.007 µg/mL; in [4], 0.78 µg/mL; in the assay with BSA-PEP3 peptide [5] it was 0.007 µg/mL; in assay [6], 0.0044 µg/mL; in [11] it was 0.78 µg/mL. The EC50 in assay [7] is 0.0044 µg/mL; in assay [8] it was 0.02 µg/mL; in [9], 0.0098 µg/mL.

B5: anti-PEP3 mAb 8D5 (antibody, V domains shown)
VH: QVQLQQPGAELIEPGTSVKLSCKASGYTFTTYWMHWVKQRPGQGLEWIGMIHPNSGDTFYNENFKNKATLTVDISSSTVYMELSSLTSEDSAVYSCVKAGTGALDYWGQGTTLTVSS
VL: DVVMTQTPLSLPVSLGDQASISCRSSQSIVHSNRYTYLEWYLQRPGQSLKLLIYGVSNRFSGVPDRFSGSGSGTDFILKISRVEAEDMGVYYCFQGTHVPFTFGSGTKLEIK
In the case of B5, the EC50 in [1] was determined as 0.02 µg/mL; in the assay with BSA-PEP3 peptide [3], 0.006 µg/mL; in [4], 0.09 µg/mL; with BSA-PEP3 peptide [5], 0.006 µg/mL; in assay [6], 0.0005 µg/mL; in assay [11] it was 0.09 µg/mL. Moreover, the EC50 in assay [7] was 0.0005 µg/mL; in [8] it was 0.02 µg/mL; in [9], 0.018 µg/mL.

B6: anti-PEP3 gp41 mAb 4G1 (antibody, V domains shown)
VL: DVVMTQTPLSLCVSLGDQASISCRTSQSIVHSNRYTYLEWYLQKPGQPLKLLIYGIANRFSGVPDRFSGSGSGTDFTLKISRVEAEDMGVYYCLQGTHVPFTFGSGTKLEIK
V domain: QVQLQQPGAELVKPGASVKLSCKASGYIFRNYWMHWVKQRPGQGLEWIGMIHPNSDITHYNEKFKNRATLTVDKSSSTAYMQLNSLTSEDSAVYYCARGGLGVFDYWGQGTALRVSS
Take B6: the EC50 in assay [1] and in assay [8] was 0.005 µg/mL throughout.
